Laboratory results: patent publication US6682911 (GENERAL HOSPITAL, dated 2004)

Biological target: T1, human laminin β1 subunit (human, UniProt P07942 22-1786)
T1 construct: 185 kDa chain from laminin 12 isolated from human placental chorionic villi, reduced and resolved by SDS-PAGE; also called 185 kDa band; 185 kDa chain
Test: trimer isolated from placenta; non-reducing then reducing SDS-PAGE and peptide sequencing of the chains
Excerpt: Protein sequencing was done according to Aebersold et al. (1987). The complex laminin 5-laminin 7 was run on a polyacrylamide gel in the presence of 2-mercaptoethanol and blotted onto a nitrocellulose membrane (Biorad). The 190 kDa band of β2 and the 165 kDa α3 band were separately excised and digested by protease trypsin. The digested product was separated by HPLC and one fragment was sequenced on an Applied Biosystems sequenator (Applied Biosystems, Foster City, Calif.). The 205 kDa chain contained a sequence identical to human laminin α2, and was thus identified as human laminin α2 subunit. The 185 kDa produced two peptides identical to human β1, and was thus identified as human laminin β1 subunit. The band at 170 kDa contained three sequences not contained in any known laminin chain. A N-terminal sequence of the 170 kDa chain was also determined. In addition, the N-terminal sequence was not identical to any known laminin sequence.

T1 sequence (P07942 22-1786 Q1022R limits assumed): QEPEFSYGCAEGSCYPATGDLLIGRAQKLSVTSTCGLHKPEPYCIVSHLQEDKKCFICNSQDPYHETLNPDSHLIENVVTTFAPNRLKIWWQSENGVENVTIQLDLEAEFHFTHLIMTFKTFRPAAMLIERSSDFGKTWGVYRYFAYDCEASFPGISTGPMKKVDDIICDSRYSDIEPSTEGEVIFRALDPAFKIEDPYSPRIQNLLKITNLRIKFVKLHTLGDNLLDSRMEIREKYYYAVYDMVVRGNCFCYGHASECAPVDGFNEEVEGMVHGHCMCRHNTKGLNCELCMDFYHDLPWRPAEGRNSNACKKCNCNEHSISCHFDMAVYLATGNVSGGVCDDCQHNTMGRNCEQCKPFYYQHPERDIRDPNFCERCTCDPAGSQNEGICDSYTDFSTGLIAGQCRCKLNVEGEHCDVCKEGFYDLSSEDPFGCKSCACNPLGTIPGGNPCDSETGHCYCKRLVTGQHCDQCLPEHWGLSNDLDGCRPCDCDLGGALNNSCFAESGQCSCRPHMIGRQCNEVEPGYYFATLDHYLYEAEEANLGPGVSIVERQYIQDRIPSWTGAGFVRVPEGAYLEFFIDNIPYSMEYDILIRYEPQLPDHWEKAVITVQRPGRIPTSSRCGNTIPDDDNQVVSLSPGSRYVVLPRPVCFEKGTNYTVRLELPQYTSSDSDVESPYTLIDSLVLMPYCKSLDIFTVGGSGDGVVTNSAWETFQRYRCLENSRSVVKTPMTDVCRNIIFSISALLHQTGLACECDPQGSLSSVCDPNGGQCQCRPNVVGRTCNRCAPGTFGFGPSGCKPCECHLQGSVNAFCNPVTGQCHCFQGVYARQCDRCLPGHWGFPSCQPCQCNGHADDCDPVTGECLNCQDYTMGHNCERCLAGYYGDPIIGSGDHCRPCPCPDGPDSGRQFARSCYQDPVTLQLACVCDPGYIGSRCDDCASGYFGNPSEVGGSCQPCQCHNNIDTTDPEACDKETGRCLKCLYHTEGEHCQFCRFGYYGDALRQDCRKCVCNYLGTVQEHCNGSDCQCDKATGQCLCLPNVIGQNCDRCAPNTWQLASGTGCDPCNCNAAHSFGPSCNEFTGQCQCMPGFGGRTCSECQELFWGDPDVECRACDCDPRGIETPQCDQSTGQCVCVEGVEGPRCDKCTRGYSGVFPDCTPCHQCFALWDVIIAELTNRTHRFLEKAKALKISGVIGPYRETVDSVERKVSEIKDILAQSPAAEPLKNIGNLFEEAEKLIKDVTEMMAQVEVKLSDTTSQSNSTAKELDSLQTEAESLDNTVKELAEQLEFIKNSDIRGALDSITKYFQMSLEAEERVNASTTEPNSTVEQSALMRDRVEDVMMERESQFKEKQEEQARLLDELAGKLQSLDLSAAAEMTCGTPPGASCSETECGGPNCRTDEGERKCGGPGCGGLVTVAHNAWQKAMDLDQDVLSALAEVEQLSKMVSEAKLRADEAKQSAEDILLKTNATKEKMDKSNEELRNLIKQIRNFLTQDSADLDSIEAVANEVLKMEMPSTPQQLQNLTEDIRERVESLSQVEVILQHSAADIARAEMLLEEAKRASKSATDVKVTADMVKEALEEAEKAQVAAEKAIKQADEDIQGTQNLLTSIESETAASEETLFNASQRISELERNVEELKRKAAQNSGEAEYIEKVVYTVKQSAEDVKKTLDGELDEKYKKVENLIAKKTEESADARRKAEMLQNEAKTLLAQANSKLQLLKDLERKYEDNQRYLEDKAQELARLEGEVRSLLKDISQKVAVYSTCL

B1: human laminin γ3 subunit (other)
chain: AGMGACYDGAGRPQRCLPVFENAAFGRLAQASHTCGSPPEDFCPHVGAAGAGAHCQRCDAADPQRHHNASYLTDFHSQDESTWWQSPSMAFGVQYPTSVNITLRLGKAYEITYVRLKFHTSRPESFAIYKRSRADGPWEPYQFYSASCQKTYGRPEGQYLRPGEDERVAFCTSEFSDISPLSGGNVAFSTLEGRPSAYNFEESPGLQEWVTSTELLISLDRLNTFGDDIFKDPKVLQSYYYAVSDFSVGGRCKCNGHASECGPDVAGQLACRCQHNTTGTDCERCLPFFQDRPWARGTAEAAHECLPCNCSGRSEECTFDRELFRSTGHGGRCHHCRDHTAGPHCERCQENFYHWDPRMPCQPCDCQSAGSLHLQCDDTGTCACKPTVTGWKCDRCLPGFHSLSEGGCRPCTCNPAGSLDTCDPRSGRCPCKENVEGNLCDRCRPGTFNLQPHNPAGCSSCFCYGHSKVCASTAQFQVHHILSDFHQGAEGWWARSVGGSEHSPQWSPNGVLLSPEDEEELTAPGKFLGDQRFSYGQPLILTFRVPPGDSPLPVQLRLEGTGLALSLRHSSLSGPQDARASQGGRAQVPLQETSEDVAPPLPPFHFQRLLANLTSLRLRVSPGPSPAGPVFLTEVRLTSARPGLSPPASWVEICSCPTGYTGQFCESCAPGYKREMPQGGPYASCVPCTCNQHGTCDPNTGICVCSHHTEGPSCERCLPGFYGNPFAGQADDCQPCPCPGQSACTTIPESGEVVCTHCPPGQRGRRCEVCDDGFFGDPLGLFGHPQPCHQCQCSGNVDPNAVGNCDPLSGHCLRCLHNTTGDHCEHCQEGFYGSALAPRPADKCMPCSCHPQGSVSEQMPCDPVTGQCSCLPHVTARDCSRCYPGFFDLQPGRGCRSCKCHPLGSQEDQCHPKTGQCTCRPGVTGQACDRCQLGFFGSSIKGCRACRCSPLGAASAQCHYNGTCVCRPGFEGYKCDRCHYNFFLTADGTHCQQCPSCYALVKEETAKLKARLTLTEGWLQGSDCGSPWGPLDILLGEAPRGDVYQGHHLLPGAREAFLEQMMGLEGAVKAAREQLQRLNKGARCAQAGSQKTCTQLADLEAVLESSEEEILHAAAILASLEIPQEGPSQPTKWSHLAIEARALARSHRDTATKIAATAWRALLASNTSYALLWNLLEGRVALETQRDLEDRYQEVQAAQKALRTAVAEVLPEAESVLATVQQVGADTAPYLALLASPGALPQKSRAEDLGLKAKALEKTVASWQHMATEAARTLQTAAQATLRQTEPLTMARSRLTATFASQLHQGARAALTQASSSVQAATVTVMGARTLLADLEGMKLQFPRPKDQAALQRKADSVSDRLLADTRKKTKQAERMLGNAAPLSSSAKKKGREAEVLAKDSAKLAKALLRERKQAHRRASRLTSQTQATLQQASQQVLASEARRQELEEAERVGAGLSEMEQQIRESRISLEKDIETLSELLARLGSLDTHQAPAQALNETQWALERLRLQLGSPGSLQRKLSLLEQESQQQELQIQGFESDLAEIRADKQNLEAILHSLPENCASWQ
notes: 170 kDa chain from laminin 12 isolated from human placental chorionic villi, reduced and resolved by SDS-PAGE; also called 170 kDa γ3 chain; 170 kDa band
**Q.** Does B1 bind?
**A.** Result: binds
